From patent publication US7465453B2, “Polypeptide fragments of CKLF1” (Peking University, priority 2004, dated 2008)
“Also recorded” adds a separate entry of the source.

Key:
Format in all cases: cell-based
U937 cells = assay: Chemotaxis of U937 cells; conditions: for migration (chemotaxis) of U937 cells: C19, C27, RANTES: U937 cells stimulated by 30 ng/ml IFN-γ
Experimental: The chemotaxis assay was performed using a 48-well microchemotaxis chamber (Neutroprobe, Cabin John, Md., U.S.A.). U937 cells were stimulated by 30 ng/ml IFN-γ for 4 days because IFN-γ could increase the expression of chemokine receptors CCR1, CCR3, and CCR5 in U937 cells. Then part cells were incubated with mouse anti CCR5 100 μg/ml, and/or rat anti CCR3 10 μg/ml for 30 minutes at 37° C., and corresponding mouse IgG and rat IgG as controls. Chemoattractants RANTES, C19 and C27 were diluted in HEPES-buffered RPMI 1640 medium supplemented with 0.5% BSA to indicate concentration, and placed in the lower wells (28 μl/well). U937 cells stimulated by IFN-γ were resuspended in the same medium at 1×10^6 cells/ml and added to the upper wells (50 μl/well), which were separated from the lower wells by a polyvinylpyrrolidone-free polycarbonate filter with 5-μm pores pre-coated by 0.001% fibronectin. The chamber was incubated for 2 hours at 37° C. in 5% CO2 and 95% air. Filters were removed from the chamber, washed, fixed, and stained with Three Step Stain Set. Cells that migrated were counted in 5 randomly selected high power fields (400×) per well. The group with no Chemoattractants in the lower wells was used as a control. All samples were assayed twice at least. The chemotactic index (CI) was calculated from the number of cells that migrated to the control. Significant chemotaxis was defined as CI>2.

CCR5 = target: T1, CCR5 (Homo sapiens, UniProt P51681); assay: Chemotaxis assay (48-well microchemotaxis chamber) of HEK293 cells transfected with CCR5; conditions: for chemotaxis induced after PTX pretreatment: CCR5-transfected HEK293 cells treated with 100 ng/ml PTX at 37° C. for 30 min; for desensitization of the receptor to subsequent stimulation with RANTES, C27 or C19 (chemotaxis): HEK293/CCR5, pretreatment 1 mM RANTES or 2 μg/ml C27 or C19, 37° C., 30 min
T1 construct: The cDNA fragments covering the open reading frames for various chemokine receptors were obtained as follows; expressed in transfected cells; host or cells: HEK293 (transient, electroporation)
T1 sequence (P51681 whole entry, the tested form may be a part): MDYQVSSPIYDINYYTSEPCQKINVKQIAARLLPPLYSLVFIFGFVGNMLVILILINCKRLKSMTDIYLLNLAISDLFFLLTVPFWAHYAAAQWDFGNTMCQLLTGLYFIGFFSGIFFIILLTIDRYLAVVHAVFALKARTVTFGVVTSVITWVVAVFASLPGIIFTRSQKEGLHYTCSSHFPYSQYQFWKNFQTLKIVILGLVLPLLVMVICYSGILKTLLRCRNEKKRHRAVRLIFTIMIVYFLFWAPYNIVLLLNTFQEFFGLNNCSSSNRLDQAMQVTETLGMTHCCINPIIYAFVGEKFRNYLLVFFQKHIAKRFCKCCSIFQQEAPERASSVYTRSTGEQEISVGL
Experimental: HEK293 cells were grown in RPMI 1640 supplemented with 10% heat-inactivated FBS, penicillin (100 U/ml) and streptomycin (100 μg/ml). Every 4×10^6 HEK293 cells in 400 μl were transiently transfected by electroporation with 15 μg of the expression plasmid at 120 V, 20 ms using an electric pulse generator (Electro Square Porator ECM 830, BTX, San Diego, Calif.), and calcium mobilization assay and chemotaxis assays were performed 48 hours later.
The chemotaxis assay was performed using a 48-well microchemotaxis chamber (Neutroprobe; Cabin John, Md., U.S.A.). Chemoattractants were diluted in HEPES-buffered RPMI 1640 medium supplemented with 0.1% BSA and placed in the lower wells (28 μl/well). HEK293 cells transfected with pcDI-CCR4, -CCR5 were resuspended in the same medium at 2×10^6 cells/ml and added to the upper wells (50 μl/well), which were separated from the lower wells by a polyvinylpyrrolidone-free polycarbonate filter with 8-μm pores. The chamber was incubated for 2 hours at 37° C. in 5% CO2 and 95% air. Filters were removed from the chamber, washed, fixed, and stained with Three Step Stain Set. Cells that migrated were counted in 5 randomly selected high power fields (400×) per well. The chemotactic index (CI) was calculated from the number of cells that migrated to the control. Significant chemotaxis was defined as CI>2. […]

CCR6 = target: T2, CCR6 (Homo sapiens, UniProt P51684); assay: Internalization of CCR6-EGFP in transiently transfected HEK293 cells; conditions: HEK293 cells transfected with pCCR6-EGFP; 37° C., 2 hours
T2 construct: The cDNA fragment covering the open reading frame for CCR6 chemokine receptor was cloned into pEGFP-N1 vector (CLONTECH); expressed in transfected cells; host or cells: HEK293 (transient)
T2 sequence (P51684 1-374): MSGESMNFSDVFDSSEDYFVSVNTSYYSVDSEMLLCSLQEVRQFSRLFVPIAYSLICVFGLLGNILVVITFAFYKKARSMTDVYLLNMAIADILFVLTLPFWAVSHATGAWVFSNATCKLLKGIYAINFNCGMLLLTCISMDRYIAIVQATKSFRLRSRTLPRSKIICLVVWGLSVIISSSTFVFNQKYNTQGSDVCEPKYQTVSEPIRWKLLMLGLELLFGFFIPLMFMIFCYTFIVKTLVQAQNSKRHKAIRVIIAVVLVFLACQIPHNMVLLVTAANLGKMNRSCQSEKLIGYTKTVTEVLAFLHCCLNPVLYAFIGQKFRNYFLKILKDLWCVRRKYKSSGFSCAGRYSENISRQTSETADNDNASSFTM
Experimental: The cDNA fragment covering the open reading frame for CCR6 chemokine receptor was cloned into pEGFP-N1 vector (CLONTECH). pCCR6-EGFP transiently expressing HEK293 cells were cultured in glass-bottom dishes in RPMI 1640 with 10% FBS. After 16-24 hours of serum starvation, cells were treated with CKLF1 C-terminal peptides or MIP3α at 37° C. for 2 hours. Cells were washed with cold PBS and fixed with 2% paraformaldehyde in PBS. The subcellular localization of CCR6-EGFP protein was visualized using a Leica TCS-NT confocal fluorescence microscope with a 63× oil immersion lens (Wetzler, Heidelberg, Germany). The excitation and emission wavelengths were 488 and 515-540 nm, respectively.

| migration (chemotaxis) of transfected cells (CCR5; CCR5-transfected HEK293 cells) | chemotaxis induced after PTX pretreatment (CCR5) | Substance | migration (chemotaxis) of U937 cells (U937 cells) | chemotactic activity after neutralization of chemokine receptors (U937 cells; IFN-γ-stimulated U937 cells, mouse anti CCR5 and/or rat anti CCR3) | desensitization of the receptor to subsequent stimulation with RANTES, C27 or C19 (chemotaxis) (CCR5) | internalization of CCR6-EGFP (CCR6) |
| --- | --- | --- | --- | --- | --- | --- |
| could induce migration | completely abolished by PTX | ALIYRKL LFNPSGPYQKKPVHEKKEVL (ALIYRKLLFNPSGPYQKKPVHEKKEVL; listed as Homo sapiens) [C27] | could induce migration | had no chemotactic activity; also recorded: obviously inhibited | could desensitize the receptor | could induce internalization of CCR6-EGFP |
|  | completely abolished by PTX | FNPSGPYQKKPVHEKKEVL (listed as Homo sapiens) [C19] | could induce migration |  | could desensitize the receptor | could induce internalization of CCR6-EGFP |
